The values below come from PMC3970758, “A conserved MCM single-stranded DNA binding element is essential for replication initiation”.

Data set [1] addresses Pyrococcus furiosus MCM N-terminal domain (PfMCM 1-256) (Pyrococcus furiosus) (UniProt Q8U3I4). Description: crystal structure; PfMCMN with 30-mer poly-dT ssDNA; hanging drop, 18°C, 50 mM MES pH 6.0, 10 mM Mg(OAc)2, 28.5% PEG 3350; 3.2 Å; two hexamers in the asymmetric unit.
For data set [2] the target is unchanged. Kind of data set: crystal structure; PfMCMN without DNA; sitting drop, 18°C, 0.2 M sodium malonate pH 7.0, 20% PEG 3350; 2.65 Å; one hexamer in the asymmetric unit.
The target of data set [3] is T1, PfMCMN WT (Pyrococcus furiosus, UniProt Q8U3I4 1-256).
T1 sequence: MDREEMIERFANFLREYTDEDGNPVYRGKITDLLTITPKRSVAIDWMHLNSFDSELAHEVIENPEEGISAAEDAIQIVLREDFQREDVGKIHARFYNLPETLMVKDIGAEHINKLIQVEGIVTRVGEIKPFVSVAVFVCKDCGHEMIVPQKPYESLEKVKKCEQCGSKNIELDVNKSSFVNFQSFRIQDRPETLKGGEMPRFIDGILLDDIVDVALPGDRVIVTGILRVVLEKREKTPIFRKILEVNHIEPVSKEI
Kind of data set: EMSA; 5 mM Mg2+; EMSA: 20 mM HEPES pH 7.6, 200 mM NaCl, 5 mM MgCl2, 5 mM bME, 25 C, 30 min, 160 nM DNA; 4-20% TBE PAGE. The conditions noted are these: protein: recombinant, tags: His6-SUMO removed by Ulp1, in-frame BamHI site may leave extra N-terminal residues. For orientation: In EMSA bound probe runs differently from free probe, usually more slowly.

Data set [4] has as its target T1, PfMCMN WT. Description: crystal structure (3.2 A); 10 mM Mg(OAc)2 in well solution; Zn-binding subdomain; EMSA: 20 mM HEPES pH 7.6, 200 mM NaCl, 5 mM MgCl2, 5 mM bME, 25 C, 30 min, 160 nM DNA; 4-20% TBE PAGE. The conditions noted are these: protein: recombinant; tags: His6-SUMO removed by Ulp1; in-frame BamHI site may leave extra N-terminal residues.

In general, stoichiometry N refers to a count of units in the complex or per binding partner. As to “Pyrococcus furiosus MCM N-terminal domain (PfMCM 1-256) (from UniProt Q8U3I4 1-256) (domain or fragment)”, the stoichiometry N in data set [1] and in data set [2] was 6 in each case.

B1: T40 ssDNA (ssDNA)
DNA: TTTTTTTTTTTTTTTTTTTTTTTTTTTTTTTTTTTTTTTT
For the molecule B1, in the data set with PfMCMN WT [3] (label: 5'-fluorescein), the “apparent K (half saturation)” value turned out to be 6.8 µM.

B2: poly-dT 30-mer (ssDNA)
DNA: TTTTTTTTTTTTTTTTTTTTTTTTTTTTTT
As to B2, the binding result in the data set with PfMCMN WT [4] is recorded as “binds”.

B3: 26-mer dsDNA (dsDNA)
DNA 1: ATGGCAGATCTCAATTGGATATCGGC
DNA 2: GCCGATATCCAATTGAGATCTGCCAT
For the molecule B3, in the data set with PfMCMN WT [3] (label: 5'-fluorescein on strand 1, blunt), the “apparent K (half saturation)” value worked out at 7 µM.
